Test results reported in patent publication US11179342B2, “Peptide coacervates and methods of use thereof” (NANYANG TECHNOLOGICAL UNIVERSITY, priority 2018, dated 2021).
“Also recorded” adds a separate entry of the source. Residues, ends and D or L forms follow the SMILES beside them.

How the values were obtained:
NIH3T3 mouse fibroblasts = assay: MTT assay; format: cell-based
Method: NIH3T3 mouse fibroblasts were used to estimate the cytotoxicity of DgHBP-2 peptide and coacervates. The fibroblasts were cultivated using Dulbecco's modified eagle medium supplemented with 10% of fetal bovine serum, 100 units/mL of penicillin and 100 μg/mL of streptomycin in a 37° C. incubator with 5% CO2. 100 μL of cells with a cell density of 1×10^4 cells/mL were seeded onto a 96-well plate (Thermo Fisher Scientific). After 24 hours, the cell culture media was substituted with 100 μL of fresh media containing different concentration of peptide or insulin-loaded coacervates. After another 24 hours, 10 μL of MTT solution (concentration: 5 mg/mL) was added into each well. Cell culture media and the excess MTT was then removed after 4 hours of incubation. 100 μL of DMSO was subsequently added into each well to dissolve the formazan crystals. The dissolved crystals were then measured at 570 nm on a 96-well microplate reader (Infinity M200, Tecan). Relative cell viability is calculated as:
[formula] where At, Ac, and Ab represent absorbance values of wells containing tested cells, control cells and DMSO, respectively. In Vitro Release Assay (Timepoint Assay)

[1] = Encapsulation of Dox and MNPs by coacervates; format: physicochemical; details: DgHBP-2-peptide coacervates
Method: Dox (Final concentration: 0.04 mg mL^−1) and MNPs (Final concentration: 0.008% v/v) were first added to phosphate buffer (pH 9.5 0.1M) to their final concentrations. DgHBP-2 peptide stock solution (10 mg mL^−1) was successively added to the buffer/drug mixture in a 1:9 ratio to trigger encapsulation and coacervation. Gentle pipetting was then done to mix the final mixture.

[2] = cited from earlier work
[3] = Dynamic light scattering of GY-23 peptide; format: physicochemical
Method: FIGS. 30A-30C. SAXS and DLS of GY-23 peptide. (A) SAXS experimental curves of the peptide before and after coacervation. After LLPS, the dilute and coacervate-rich phases were measured following centrifugation. The q-3 power-law region of the scattering data is highlighted, with the black line a guide for the eye. The calculated fit for the peptide assemblies from the IFT method is also presented as a continuous red line. (B) Corresponding p(r) profile calculated from the SAXS data in (A) using Eq. 1 (materials and methods). (C) Hydrodynamic diameter (DH) measured by DLS of GY-23 in acetic acid (pH 3.3) and after coacervation (pH 7.0).
FIGS. 34A-34B Correlation functions of the DLS measurements of GY-23 peptide before and after coacervation (FIG. 33C) showing the intensity correlation function, C(τ) vs. the correlation time, τ. (A) Sample before coacervation (10 mM in acetic acid, pH 3.3). The curve with a single decay at short correlation times represents a monomodal distribution of rather small particles in the nanometer range. (B) Sample after LLPS (coacervation buffer, pH 7.0).

[4] = Liquid-liquid phase separation by optical microscopy; format: physicochemical; details: for ability to undergo LLPS / phase separation: various pH and salt (NaCl) concentration
Method: In Example 2 below, phase separation behavior of protein variants and peptides was studied using a Zeiss Axio Scope A1 microscope (Carl Zeiss Pte Ltd., Germany) in the reflection mode, with differential interference contrast (DIC) filters. Images were taken with an AxioCam MRc 5 camera under the control of AxioVision software.
Liquid-liquid phase separation properties of protein variants and peptides at different buffer conditions were assessed using the method described in (Tan et al, Nat. Chem. Biol. 11, 488-495). Briefly, protein/peptide stock solution (10 mg/mL in 10 mM acetic acid, pH 3.3) was added to a buffer solution in a volume ratio 1:5 (protein/peptide stock:buffer). The mixture was then pipetted onto a microscopy glass slide and imaged using the optical microscope.

[5] = Circular dichroism spectroscopy of insulin; format: physicochemical
From the text: Circular dichroism (CD) spectra was collected using a quartz cuvette of 0.2/0.5 mm optical pathlength. Data collection was done on AVIV 420 Circular Dichroism spectrometer with the following parameters: average of three scans per experiment between wavelength range from 190 to 250 nm, 1.0 nm wavelength steps with 1.00 nm bandwidth and 0.1 s averaging time. Each experiment was repeated for 3 times and averaged to obtain the final spectrum. The final spectrum was then smoothed and plotted using originPro9.1.

CC(C)C[C@H](NC(=O)CNC(=O)[C@H](Cc1c[nH]cn1)NC(=O)CNC(=O)[C@H](Cc1ccc(O)cc1)NC(=O)[C@@H]1CCCN1C(=O)CNC(=O)[C@H](Cc1c[nH]cn1)NC(=O)CNC(=O)[C@H](Cc1ccc(O)cc1)NC(=O)[C@@H]1CCCN1C(=O)CNC(=O)[C@H](Cc1c[nH]cn1)NC(=O)CNC(=O)[C@H](Cc1ccc(O)cc1)NC(=O)[C@@H](NC(=O)CNC(=O)[C@H](Cc1c[nH]cn1)NC(=O)CNC(=O)[C@H](Cc1ccc(O)cc1)NC(=O)[C@@H](NC(=O)CNC(=O)[C@H](Cc1c[nH]cn1)NC(=O)CN)C(C)C)C(C)C)C(=O)N[C@@H](Cc1ccc(O)cc1)C(=O)N[C@@H](Cc1c[nH]c2ccccc12)C(=O)O [DgHBP-2 peptide, GHGVYGHGVYGHGPYGHGPYGHGLYW] (H-GHGVYGHGVYGHGPYGHGPYGHGLYW-OH)
cytotoxicity (NIH3T3 mouse fibroblasts): negligible

COc1cccc2c1C(=O)c1c(O)c3c(c(O)c1C2=O)C[C@@](O)(C(=O)CO)C[C@@H]3O[C@H]1C[C@H](N)[C@H](O)[C@H](C)O1 [Dox, Doxorubicin]
encapsulation efficiency of Dox [1]: ~40% | unencapsulated Dox [1]: 60% | pKa [2]: ~8.46

GHGLY GAGFA GHGLH GFA GHGLY (GHGLYGAGFAGHGLHGFAGHGLY) [GY-23]
hydrodynamic diameter (DH) ([3]; acetic acid (pH 3.3), before LLPS): ca. 8 nm | hydrodynamic diameter (DH) ([3]; pH 7.0, initiation of LLPS): around 50 nm | morphology of the separated phase ([4]; optical micrographs after LLPS): coacervate micro-droplets suspended in solution as well as a dense hydrogel-like structure; also recorded: micro-droplets as well as hydrogel-like condensed coacervates | ability to undergo LLPS / phase separation [4]: phase-separated

insulin [reference compound]
CD: secondary structure ([5]; pH 5.5 to 7.5): not disrupted

released insulin: insulin released from dissociated coacervates
CD: characteristic minima of α-helices at 208 and 222 nm ([5]; after coacervation and release): still visible

B1: N-terminal (M1-R81) fragment: DgHBP-2 N-terminal trypsin fragment lacking the modular repeats (protein)
chain: MQFFGAGPFNTAHHSAVSDAAAAHHDAAGEYAQNAATGLLDTHHNENHDMTHDLANGYGLHEHDEQHHGLADGLHQEYAAR
modifications: N-terminal fragment of HBP-2
notes: DgHBP-2 N-terminal trypsin fragment lacking the modular repeats
ability to undergo LLPS / phase separation [4]: only the C-terminal fragment phase-separated
